{
  "source": "paper PMC7293036",
  "system": "eIF4G HEAT1 domain",
  "experiment": "MST",
  "data": [
    {"substance": "5'tiRNAAla", "values": [
      {"measurement": "Kd", "result": 410, "unit": "nM"}
    ]}
  ]
}
